Experimental data taken from publication PMC4420465, “A Novel Type II NAD^+-Specific Isocitrate Dehydrogenase from the Marine Bacterium Congregibacter litoralis KT71” (PLoS ONE, 2015).

Experiments:
[1] = target: Congregibacter litoralis KT71 NAD+-specific isocitrate dehydrogenase (recombinant ClIDH) (Congregibacter litoralis KT71); experiment: SEC; gel filtration on a 10/300 Superdex 200 column, 0.05 M potassium phosphate buffer (pH 7.0), 0.15 M NaCl, 0.01% sodium azide; calibrated with ovalbumin, conalbumin, aldolase, ferritin, thyroglobulin
[2] = target: Congregibacter litoralis KT71 NAD+-specific isocitrate dehydrogenase (recombinant ClIDH) (Congregibacter litoralis KT71); experiment: AUC; sedimentation velocity, Beckman XL-A, 20°C, 116,000 g, continuous c(s) distribution; protein of more than 90% purity after gel filtration; single run
purified protein [3] = substrate: NC(=O)c1ccc[n+]([C@@H]2O[C@H](COP(=O)(O)OP(=O)(O)OC[C@H]3O[C@@H](n4cnc5c(N)ncnc54)[C@H](O)[C@@H]3O)[C@@H](O)[C@H]2O)c1; experiment: purified protein; type: biochemical, Congregibacter litoralis; settings: Mn2+ 2 mM, DL-isocitrate 1.5 mM, 35 mM Tris-HCl pH 7.5, 25°C, varied: cofactor
purified protein [4] = substrate: O=C(O)CC(C(=O)O)C(O)C(=O)O; experiment: purified protein; type: biochemical, Congregibacter litoralis; settings: Mn2+ 2 mM, NAD+ 1 mM, 35 mM Tris-HCl pH 7.5, 25°C
purified protein [5] = substrate: NC(=O)c1ccc[n+]([C@@H]2O[C@H](COP(=O)(O)OP(=O)(O)OC[C@H]3O[C@@H](n4cnc5c(N)ncnc54)[C@H](OP(=O)(O)O)[C@@H]3O)[C@@H](O)[C@H]2O)c1; experiment: purified protein; type: biochemical, Congregibacter litoralis; settings: Mn2+ 2 mM, DL-isocitrate 1.5 mM, 35 mM Tris-HCl pH 7.5, 25°C, varied: cofactor

Congregibacter litoralis KT71 NAD+-specific isocitrate dehydrogenase (recombinant ClIDH) (enzyme)
stoichiometry N [1]: 6
stoichiometry N [2]: 6

B1: ClIDH (Congregibacter litoralis KT71) (protein)
chain: MSNKIKVEKPLVILHGDEMAQIAFERLLEQFVTSRLDINLLEVDLSAEKRFTTNGQVVLDAIDALIEHGVGIKNAGMTVNRSQLDELLAKYPDVKESELDKLATKSPNGAIRKGIGGNITREDIEFQNLTSVRPDWIDRDIEVDTMDSGGLDFSYSELSNATGVAKVMFVGSSGDPVELHRRTLKKGDPWMLANNSLEEVEAWAHRFFQRALDEKRDIYLGLKDTVVPGYDGVMRAAIEAIYERDYKEKVAAAGLKYHYELIDAQAARIVSNPPERALWGVPDNVSGMKLYKLVQQLKHYGLPERKANVSISRMSAGGGDQYGSYNTPAPEDGIIKVVVDGVEKHARMVKANDPILFMSNDRDAIKDWVKQVFKDASINKKEVYFGLKREFVNYDEVYSSIILEIRKELAALDTPPPSFMIMRPSRQLSKMICDPPRWGLYPAQNLDGDIFSDISAALGGSLATASSVIKSKDGTLLYEAPHGTAHDLYLRYLETDGKEAHFNSSALIFAVANALEEMARREENEALADYAQRLKAALIDTVAQGTITGDLKGKTLDPESENVVDMYGFLDAIEANLNAS
notes: full length 580 residues, 6xHis tag (pET-28b, upstream, kept), E. coli Rosetta (DE3), about 64 kDa subunit, homohexamer
Km (purified protein [3]): 309.1 ± 11.2 µM
kcat (purified protein [3]): 84.7 s⁻¹
kcat/Km (purified protein [3]): 270000 M⁻¹ s⁻¹
Km (purified protein [4]): 90.8 µM

B2: ClIDH (Congregibacter litoralis KT71; D487R/L488H) (protein)
chain: MSNKIKVEKPLVILHGDEMAQIAFERLLEQFVTSRLDINLLEVDLSAEKRFTTNGQVVLDAIDALIEHGVGIKNAGMTVNRSQLDELLAKYPDVKESELDKLATKSPNGAIRKGIGGNITREDIEFQNLTSVRPDWIDRDIEVDTMDSGGLDFSYSELSNATGVAKVMFVGSSGDPVELHRRTLKKGDPWMLANNSLEEVEAWAHRFFQRALDEKRDIYLGLKDTVVPGYDGVMRAAIEAIYERDYKEKVAAAGLKYHYELIDAQAARIVSNPPERALWGVPDNVSGMKLYKLVQQLKHYGLPERKANVSISRMSAGGGDQYGSYNTPAPEDGIIKVVVDGVEKHARMVKANDPILFMSNDRDAIKDWVKQVFKDASINKKEVYFGLKREFVNYDEVYSSIILEIRKELAALDTPPPSFMIMRPSRQLSKMICDPPRWGLYPAQNLDGDIFSDISAALGGSLATASSVIKSKDGTLLYEAPHGTAHRHYLRYLETDGKEAHFNSSALIFAVANALEEMARREENEALADYAQRLKAALIDTVAQGTITGDLKGKTLDPESENVVDMYGFLDAIEANLNAS
notes: as for B1
Km (purified protein [5]): 156.7 ± 4.8 µM
kcat (purified protein [5]): 55.1 s⁻¹
kcat/Km (purified protein [5]): 350000 M⁻¹ s⁻¹
Km (purified protein [3]): 663.8 ± 48.6 µM
kcat (purified protein [3]): 9.7 s⁻¹
kcat/Km (purified protein [3]): 15000 M⁻¹ s⁻¹
